# Laboratory results taken from patent US20230256114A1, “NOVEL MAYTANSINOIDS AS ADC PAYLOADS AND THEIR USE FOR THE TREATMENT OF CANCER” (priority 2020, published 2023).
# T1: Trophoblast cell-surface antigen-2 (Trop-2) (human, UniProt P09758 27-323)
# T1 sequence (looked up): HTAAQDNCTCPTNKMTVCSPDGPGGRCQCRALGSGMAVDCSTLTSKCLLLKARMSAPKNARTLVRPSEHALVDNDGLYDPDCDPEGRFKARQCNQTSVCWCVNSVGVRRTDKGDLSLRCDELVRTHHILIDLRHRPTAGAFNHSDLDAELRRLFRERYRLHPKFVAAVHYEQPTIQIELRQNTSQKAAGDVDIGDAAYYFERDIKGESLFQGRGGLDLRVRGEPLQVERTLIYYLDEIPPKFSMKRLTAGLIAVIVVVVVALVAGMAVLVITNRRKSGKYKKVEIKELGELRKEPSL
# Tests used:
# [1] = Size exclusion chromatography (SEC) of ADC monomer and aggregates; assay type: physicochemical; conditions: anti-Trop-2 ADC with the named payload, Cysteine conjugation
# Procedure: Some embodiments of the invention relate to DM1s linked to antibodies via a non-cleavable linker. In this example, anti-Trop-2 antibody was reduced by adding antibody to TCEP (Tris (2-carboxyethyl) phosphine) dissolved in a pH-adjusted PBS EDTA buffer. The antibody/TCEP solution was incubated at 37° C. for 2-3 hrs. The reduced antibodies were buffer exchanged into conjugation reaction buffer. The BI-P203 payload dissolved in DMSO was added to a solution of reduced anti-Trop-2 monoclonal antibody at payload/antibody ratio of 7-30:1 in order to achieve different drug to antibody ratios (DARs). The payload/antibody solution was incubated for 1-2 hr at 20° C. while the reduced antibody was conjugated to BI-P203 payload via the maleimide group. After conjugation was completed, the reaction mixture was desalted and concentrated to yield anti-Trop-2-DM1 ADCs. The biochemical properties of the resulting ADCs were characterized using size-exclusion chromatography high pressure liquid chromatography (SEC-HPLC) to determine purity and aggregation content, and by using hydrophobic interaction chromatography HPLC (HIC-HPLC) to confirm drug loading (DAR). The conjugation procedure is illustrated in FIG. 12. The final ADC products are comprised of four or six or seven DM1-linker molecules. The cysteine conjugation method used in the conjugation process produces more homogenous ADCs compared to lysine conjugation method.
# [2] = target: T1, Trophoblast cell-surface antigen-2 …; experiment: cell-based or functional assay
molecule,measurement,setting,value
COc1cc2cc(c1Cl)N(C)C(=O)C[C@H](OC(=O)C1CCN(C(=O)CCOCCOCCOCCOCCNC(=O)CCN3C(=O)C=CC3=O)CC1)[C@@]1(C)O[C@H]1[C@H](C)[C@@H]1C[C@@](O)(NC(=O)O1)C(OC)/C=C/C=C(\C)C2 (some centres unmarked) [BI-P206],Aggregation rate (%),[1]; DAR 3.6,0.76%
COc1cc2cc(c1Cl)N(C)C(=O)C[C@H](OC(=O)C1CCN(C(=O)CCOCCOCCOCCOCCOCCOCCNC(=O)CCN3C(=O)C=CC3=O)CC1)[C@@]1(C)O[C@H]1[C@H](C)[C@@H]1C[C@@](O)(NC(=O)O1)C(OC)/C=C/C=C(\C)C2 (some centres unmarked) [BI-P207],Aggregation rate (%),[1]; DAR 3.4,1.02%
COc1cc2cc(c1Cl)N(C)C(=O)C[C@H](OC(=O)C1CCC(CNC(=O)CCOCCOCCOCCOCCNC(=O)CCN3C(=O)C=CC3=O)CC1)[C@@]1(C)O[C@H]1[C@H](C)[C@@H]1C[C@@](O)(NC(=O)O1)C(OC)/C=C/C=C(\C)C2 (some centres unmarked) [BI-P208],Aggregation rate (%),[1]; DAR 3.0,2.04%
same,Aggregation rate (%),[1]; DAR 6.7,9.46%
same,Aggregation rate (%),[1]; DAR 7.3,6.02%
COc1cc2cc(c1Cl)N(C)C(=O)C[C@H](OC(=O)[C@H](C)N(C)C(=O)CCCCCn1cc(COCCOCCOCCOCCNC(=O)CCN3C(=O)C=CC3=O)nn1)[C@@]1(C)O[C@H]1[C@H](C)[C@@H]1C[C@@](O)(NC(=O)O1)C(OC)/C=C/C=C(\C)C2 (some centres unmarked) [BI-P204],Aggregation rate (%),[1]; DAR 2.8,0.65%
"Anti-Trop-2-BI-P203 (antibody, V domains shown, BI-P203 maytansinoid drug-linker on reduced cysteines via the maleimide group; positions not given; DAR 3.5, 5.1 or 7) VH: SALMSRLTISKDTSKNQFSLKLSSVTAADTAVYYCARDENWDGAWFAYWGQGTLVTVSS VL: DIVMTQSPDSLAVSLGERATINCKSSQSLLNSGTRKNYLAWYQQKPGQPPKLLISWASSRESGVPDRFSGSGSGTDFTLTISSLQAEDVAVYYCKQSYNLFTFGGGTKVEIKR","IC50 (nM), in vitro cytotoxicity (CCK-8, 72 h), BxPC-3 cells (TROP2 +++), ADC at DAR 3.5",[2],0.48 nM
same,"IC50 (nM), in vitro cytotoxicity (CCK-8, 72 h), BxPC-3 cells (TROP2 +++), ADC at DAR 7",[2],0.59 nM
same,"IC50 (nM), in vitro cytotoxicity (CCK-8, 72 h), Colo205 cells (TROP2 +), ADC at DAR 7",[2],31.8 nM
same,"IC50 (nM), in vitro cytotoxicity (CCK-8, 72 h), MDA-MB-468 cells (TROP2 ++), ADC at DAR 5.1",[2],1.2 nM
same,"IC50 (nM), in vitro cytotoxicity (CCK-8, 72 h), MDA-MB-468 cells (TROP2 ++), ADC at DAR 7",[2],0.77 nM
same,"IC50 (nM), in vitro cytotoxicity (CCK-8, 72 h), NCI-N87 cells (TROP2 ++/+), ADC at DAR 3.5",[2],8.93 nM
same,"IC50 (nM), in vitro cytotoxicity (CCK-8, 72 h), NCI-N87 cells (TROP2 ++/+), ADC at DAR 7",[2],0.62 nM
"Anti-Trop-2-BI-P204 (antibody, V domains shown, BI-P204 maytansinoid drug-linker on cysteines; positions not given; DAR 2.8 or 3.9) VH: SALMSRLTISKDTSKNQFSLKLSSVTAADTAVYYCARDENWDGAWFAYWGQGTLVTVSS VL: DIVMTQSPDSLAVSLGERATINCKSSQSLLNSGTRKNYLAWYQQKPGQPPKLLISWASSRESGVPDRFSGSGSGTDFTLTISSLQAEDVAVYYCKQSYNLFTFGGGTKVEIKR","IC50 (nM), in vitro cytotoxicity (CCK-8, 72 h), BxPC-3 cells (TROP2 +++), ADC at DAR 2.8",[2],0.38 nM
same,"IC50 (nM), in vitro cytotoxicity (CCK-8, 72 h), MDA-MB-468 cells (TROP2 ++), ADC at DAR 3.9",[2],1.81 nM
same,"IC50 (nM), in vitro cytotoxicity (CCK-8, 72 h), NCI-N87 cells (TROP2 ++/+), ADC at DAR 2.8",[2],17.6 nM
"Anti-Trop-2-BI-P205 (antibody, V domains shown, BI-P205 maytansinoid drug-linker on cysteines; positions not given; DAR 3.6, 4.9 or 7.1) VH: SALMSRLTISKDTSKNQFSLKLSSVTAADTAVYYCARDENWDGAWFAYWGQGTLVTVSS VL: DIVMTQSPDSLAVSLGERATINCKSSQSLLNSGTRKNYLAWYQQKPGQPPKLLISWASSRESGVPDRFSGSGSGTDFTLTISSLQAEDVAVYYCKQSYNLFTFGGGTKVEIKR","IC50 (nM), in vitro cytotoxicity (CCK-8, 72 h), BxPC-3 cells (TROP2 +++), ADC at DAR 3.6",[2],0.43 nM
same,"IC50 (nM), in vitro cytotoxicity (CCK-8, 72 h), BxPC-3 cells (TROP2 +++), ADC at DAR 7.1",[2],0.52 nM
same,"IC50 (nM), in vitro cytotoxicity (CCK-8, 72 h), Colo205 cells (TROP2 +), ADC at DAR 7.1",[2],26.1 nM
same,"IC50 (nM), in vitro cytotoxicity (CCK-8, 72 h), MDA-MB-468 cells (TROP2 ++), ADC at DAR 4.9",[2],1.58 nM
same,"IC50 (nM), in vitro cytotoxicity (CCK-8, 72 h), MDA-MB-468 cells (TROP2 ++), ADC at DAR 7.1",[2],0.47 nM
same,"IC50 (nM), in vitro cytotoxicity (CCK-8, 72 h), NCI-N87 cells (TROP2 ++/+), ADC at DAR 3.6",[2],0.282 nM
"Anti-Trop-2-BI-P208 (antibody, V domains shown, BI-P208 maytansinoid drug-linker on cysteines; positions not given; DAR 3.0 or 4.3) VH: SALMSRLTISKDTSKNQFSLKLSSVTAADTAVYYCARDENWDGAWFAYWGQGTLVTVSS VL: DIVMTQSPDSLAVSLGERATINCKSSQSLLNSGTRKNYLAWYQQKPGQPPKLLISWASSRESGVPDRFSGSGSGTDFTLTISSLQAEDVAVYYCKQSYNLFTFGGGTKVEIKR","IC50 (nM), in vitro cytotoxicity (CCK-8, 72 h), BxPC-3 cells (TROP2 +++), ADC at DAR 3.0",[2],0.67 nM
same,"IC50 (nM), in vitro cytotoxicity (CCK-8, 72 h), MDA-MB-468 cells (TROP2 ++), ADC at DAR 4.3",[2],2.22 nM
same,"IC50 (nM), in vitro cytotoxicity (CCK-8, 72 h), NCI-N87 cells (TROP2 ++/+), ADC at DAR 3.0",[2],6.43 nM
"Anti-Trop-2-BI-P206 (antibody, V domains shown, BI-P206 maytansinoid drug-linker on cysteines; positions not given; DAR 3.6 or 4.5) VH: SALMSRLTISKDTSKNQFSLKLSSVTAADTAVYYCARDENWDGAWFAYWGQGTLVTVSS VL: DIVMTQSPDSLAVSLGERATINCKSSQSLLNSGTRKNYLAWYQQKPGQPPKLLISWASSRESGVPDRFSGSGSGTDFTLTISSLQAEDVAVYYCKQSYNLFTFGGGTKVEIKR","IC50 (nM), in vitro cytotoxicity (CCK-8, 72 h), BxPC-3 cells (TROP2 +++), ADC at DAR 3.6",[2],0.99 nM
same,"IC50 (nM), in vitro cytotoxicity (CCK-8, 72 h), MDA-MB-468 cells (TROP2 ++), ADC at DAR 4.5",[2],2.66 nM
same,"IC50 (nM), in vitro cytotoxicity (CCK-8, 72 h), NCI-N87 cells (TROP2 ++/+), ADC at DAR 3.6",[2],125 nM
"Anti-Trop-2-Vc-MMAE (antibody, V domains shown, vc-MMAE drug-linker; conjugation site not stated; DAR 4) VH: SALMSRLTISKDTSKNQFSLKLSSVTAADTAVYYCARDENWDGAWFAYWGQGTLVTVSS VL: DIVMTQSPDSLAVSLGERATINCKSSQSLLNSGTRKNYLAWYQQKPGQPPKLLISWASSRESGVPDRFSGSGSGTDFTLTISSLQAEDVAVYYCKQSYNLFTFGGGTKVEIKR","IC50 (nM), in vitro cytotoxicity (CCK-8, 72 h), BxPC-3 cells (TROP2 +++), ADC at DAR 4",[2],0.51 nM
same,"IC50 (nM), in vitro cytotoxicity (CCK-8, 72 h), Colo205 cells (TROP2 +), ADC at DAR 4",[2],0.68 nM
same,"IC50 (nM), in vitro cytotoxicity (CCK-8, 72 h), MDA-MB-468 cells (TROP2 ++), ADC at DAR 4",[2],0.54 nM
same,"IC50 (nM), in vitro cytotoxicity (CCK-8, 72 h), NCI-N87 cells (TROP2 ++/+), ADC at DAR 4",[2],0.49 nM
"Anti-Trop-2-BI-P207 (antibody, V domains shown, BI-P207 maytansinoid drug-linker on cysteines; positions not given; DAR 3.4 or 4.5) VH: SALMSRLTISKDTSKNQFSLKLSSVTAADTAVYYCARDENWDGAWFAYWGQGTLVTVSS VL: DIVMTQSPDSLAVSLGERATINCKSSQSLLNSGTRKNYLAWYQQKPGQPPKLLISWASSRESGVPDRFSGSGSGTDFTLTISSLQAEDVAVYYCKQSYNLFTFGGGTKVEIKR","IC50 (nM), in vitro cytotoxicity (CCK-8, 72 h), BxPC-3 cells (TROP2 +++), ADC at DAR 3.4",[2],2.09 nM
same,"IC50 (nM), in vitro cytotoxicity (CCK-8, 72 h), MDA-MB-468 cells (TROP2 ++), ADC at DAR 4.5",[2],4.29 nM
same,"IC50 (nM), in vitro cytotoxicity (CCK-8, 72 h), NCI-N87 cells (TROP2 ++/+), ADC at DAR 3.4",[2],33.8 nM
"Anti-Trop-2-BI-P209 (antibody, V domains shown, BI-P209 maytansinoid drug-linker on cysteines; positions not given; DAR 6.2) VH: SALMSRLTISKDTSKNQFSLKLSSVTAADTAVYYCARDENWDGAWFAYWGQGTLVTVSS VL: DIVMTQSPDSLAVSLGERATINCKSSQSLLNSGTRKNYLAWYQQKPGQPPKLLISWASSRESGVPDRFSGSGSGTDFTLTISSLQAEDVAVYYCKQSYNLFTFGGGTKVEIKR","IC50 (nM), in vitro cytotoxicity (CCK-8, 72 h), Colo205 cells (TROP2 +), ADC at DAR 6.2",[2],> 500 nM
same,"IC50 (nM), in vitro cytotoxicity (CCK-8, 72 h), MDA-MB-468 cells (TROP2 ++), ADC at DAR 6.2",[2],5.37 nM
"Anti-Trop-2-SMCC-DM1 (antibody, V domains shown, SMCC-DM1 on lysines; positions not given; DAR 4) VH: SALMSRLTISKDTSKNQFSLKLSSVTAADTAVYYCARDENWDGAWFAYWGQGTLVTVSS VL: DIVMTQSPDSLAVSLGERATINCKSSQSLLNSGTRKNYLAWYQQKPGQPPKLLISWASSRESGVPDRFSGSGSGTDFTLTISSLQAEDVAVYYCKQSYNLFTFGGGTKVEIKR","IC50 (nM), in vitro cytotoxicity (CCK-8, 72 h), BxPC-3 cells (TROP2 +++), ADC at DAR 4",[2],1.01 nM
same,"IC50 (nM), in vitro cytotoxicity (CCK-8, 72 h), Colo205 cells (TROP2 +), ADC at DAR 4",[2],56.4 nM
same,"IC50 (nM), in vitro cytotoxicity (CCK-8, 72 h), MDA-MB-468 cells (TROP2 ++), ADC at DAR 4",[2],4.88 nM
same,"IC50 (nM), in vitro cytotoxicity (CCK-8, 72 h), NCI-N87 cells (TROP2 ++/+), ADC at DAR 4",[2],2.88 nM
